Source: patent US7976843B2, “Method for screening peptides for use in immunotherapy” (Institut National de la Santa et de la Recherche Medicale …, priority 2000, dated 2011)

Biological target: HLA A2.1 molecule (Homo sapiens, UniProt P04439, D140Y/D185E/D98H/E176V/E277Q/G131W/G231S/I119V/I121R/I166T/I218V/L300P/L318F/N151K/N90K/P208A/P217A/Q86G/Q94H/R138H/R169H/T345S)
Assay: Stability of the peptide/HLA A2.1 complex (DC50) on T2 cells, flow cytometry
Assay type: binding
Conditions: […]; arrow in neighbouring cell gives direction
Experimental: For each incubation time, the cells are then labeled, as indicated above, with the BB7.2 antibody, and analyzed by flow cytometry in order to evaluate the amount of peptide/HLA A2.1 complex present at their surface. […] The DC50 (dissociation complex: DC) is defined as being the time required for the loss of 50% of the HLA A2.1/peptide complexes stabilized at t=0.

GILGPVFTL [Flu M58, reference compound]
DC50 Y1-DC50 WT: =0 hours
